Positions count from the first letter of the chain named.
T1: human TL1A (hTL1A) antigen (human, UniProt O95150 58-251, limits assumed)
T1 construct: also called TNFSF15
T1 sequence (looked up): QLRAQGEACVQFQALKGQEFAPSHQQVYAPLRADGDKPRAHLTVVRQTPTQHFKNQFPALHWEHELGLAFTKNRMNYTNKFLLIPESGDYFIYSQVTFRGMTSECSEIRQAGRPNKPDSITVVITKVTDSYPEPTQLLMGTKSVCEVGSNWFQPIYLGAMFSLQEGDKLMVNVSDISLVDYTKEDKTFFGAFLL

T2: murine TL1A (murine, UniProt Q5UBV8 94-252, limits assumed)
T2 sequence (looked up): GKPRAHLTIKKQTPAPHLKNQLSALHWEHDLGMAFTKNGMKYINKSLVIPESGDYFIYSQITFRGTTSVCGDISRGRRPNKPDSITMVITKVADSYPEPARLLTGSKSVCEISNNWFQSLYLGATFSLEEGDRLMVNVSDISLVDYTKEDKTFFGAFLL

B1: AS12824 (antibody, V domains shown)
VH: QVQLVQSGAEVKKPGASVKVSCKASGFDICDTYMHWVKQRPGQGLEWIGRIDPASGHTKYDPKFQVRATITTDTSTSTAYLELSSLRSEDTAVYYCARSGGLPDVWGQGTTVTVSS
VL: EIVLTQSPGTLSASPGERATMSCRASSSVSYMYWYQQKPGQAPRPWIYATSNLASGVPDRFSGSGSGTDYTLTISRVEPEDFAVYYCQQWSGNPRTFGGGTKLEIK
notes: Humanized 5C3D11 clone from a phage display library; also called 15
B2: AS12816 (antibody, V domains shown)
VH: B1 VH with T72R, A97S
VL: B1 VL with A19V, M21L, Y70F, V77L
notes: Humanized 5C3D11 clone from a phage display library
B3: AS12819 (antibody, V domains shown)
VH: B1 VH with K12V, V20L, K38R, I48M, A68V, I70M, A79V
VL: B1 VL with A13L, A19V, Y70F, L103V
notes: Humanized 5C3D11 clone from a phage display library; also called 10
B4: AS12823 (antibody, V domains shown)
VH: B1 VH with V20L, K38R, I70M, A79V
VL: B1 VL with A13L, V57I, Y70F
notes: Humanized 5C3D11 clone from a phage display library; also called 14
B5: AS12825 (antibody, V domains shown)
VH: B1 VH with R40A, I48M, I70M, A97S
VL: B1 VL with A19V, P45L, W46L, Y70F
notes: Humanized 5C3D11 clone from a phage display library; also called 16
B6: 5C3D11 (antibody, V domains shown)
VH: EVQLQQSGAELVKPGASVKLSCTASGFDIQDTYMHWVKQRPEQGLEWIGRIDPASGHTKYDPKFQVKATITTDTSSNTAYLQLSSLTSEDTAVYYCSRSGGLPDVWGAGTTVTVSS
VL: QIVLSQSPAILSASPGEKVTMTCRASSSVSYMYWYQQKPGSSPKPWIYATSNLASGVPDRFSGSGSGTSYSLTISRVEAEDAATYYCQQWSGNPRTFGGGTKLEIK
notes: Mouse hybridoma monoclonal antibody; also called 684842-3; anti-TL1A antibody 5C3D11
B7: 9E12E5 (antibody, V domains shown)
VH: QVHLQQSGPELVKPGASVKLSCKASGYTFTKYDINWVRQRPEQGLEWIGWIFPGDGRTDYNEKFKGKATLTTDKSSSTAYMEVSRLTSEDSAVYFCARYGPAMDYWGQGTSVTVAS
VL: DVLMTQTPLSLPVSLGDQASISCRSSQTIVHSNGDTYLDWFLQKPGQSPKLLIYKVSNRFSGVPDRFSGSGSGTDFTLKISRVEAEDLGVYYCFQGSHVPYTFGGGTKLEIK
notes: Mouse hybridoma monoclonal antibody; also called 684842-6; anti-TL1A antibody 9E12E5

What follows are binders tested against T1, human TL1A (hTL1A) antigen (assay: SPR, affinity ranking, clone as ligand).
For B1, the Kd was 0.0163 nM, the koff was 1.69e-05 s⁻¹ and the kon was 1.03e+06 M⁻¹ s⁻¹. B2 showed a Kd of 0.062 nM, a koff of 4.73e-05 s⁻¹ and a kon of 763000 M⁻¹ s⁻¹. In the case of B3, the Kd is reported as 0.0462 nM, the koff is reported as 3.81e-05 s⁻¹ and the kon is reported as 825000 M⁻¹ s⁻¹. For B4, the Kd was 0.0424 nM, the koff was 3.66e-05 s⁻¹ and the kon was 864000 M⁻¹ s⁻¹. B5 showed a Kd of 0.105 nM, a koff of 5.45e-05 s⁻¹ and a kon of 518000 M⁻¹ s⁻¹.

What follows are binders tested against T1, human TL1A (hTL1A) antigen (assay: cell-based or functional assay).
B6 was tested, and the “EC50, inhibition of human TL1A induced IFN-γ production (percent of IFN-γ production without inhibitor)” value was 1 nM.

Molecular target: T1, human TL1A (hTL1A) antigen
Experiment: cell-based or functional assay
Remark: another data set of the same source
For B7, the “EC50, inhibition of human TL1A induced IFN-γ production (percent of IFN-γ production without inhibitor)” value was 2.4 nM.

Each binder was assayed against T1, human TL1A (hTL1A) antigen (assay: SPR, multi-cycle, antibody as ligand, TL1A analyte).
Work on B1 yielded a kon of 1.07e+06 M⁻¹ s⁻¹. In the case of B2, the kon is reported as 819000 M⁻¹ s⁻¹. B3 showed a kon of 946000 M⁻¹ s⁻¹. Work on B4 yielded a kon of 1.11e+06 M⁻¹ s⁻¹.

What follows are binders tested against T2, murine TL1A (assay: MSD electrochemiluminescence plate assay, antibody titrated on plates coated with murine TL1A).
Procedure: Anti-human TL1A monoclonal antibodies 9E12E5 and 5C3D11 neutralize the activity of human TL1A in vitro. […] MSD plates were coated with murine TL1A and incubated with various concentrations of 5C3D11 or 9E12E5 to evaluate the ability of the antibody to recognize murine TL1A, as shown in FIG. 6. Human TL1A was included as a positive control. 5C3D11 recognizes murine TL1A in a concentration dependent manner. The binding profile of both the 5C3D11 and 9E12E5 antibodies were assessed using a TL1A transfected HEK293 cell line and compared to the untransfected parental HEK293 cell line. Fluorescent staining of the anti-TL1A antibodies in TL1A expressing HEK293 cells is compared to the untransfected parental HEK293 cells, as shown in FIG. 7.
B7: no binding (tested: 100 ng/ml).

Each binder was assayed against T1, human TL1A (hTL1A) antigen (assay: Biacore (SPR), TL1A as analyte).
B7 was tested, and the Kd was 0.52 nM. Binder B6 has a Kd of 0.079 nM.

Reference: US20260102485A1 (CEDARS SINAI MEDICAL CENTER, published 2026)
